The values below come from patent publication US20160304628A1.

Assay [1] has as its target HIV broadly neutralizing monoclonal antibody 2G12. Kind of assay: BLI (BLItz), biotin-10F2 on streptavidin sensor, 2G12 in solution at 2 nM; global 1:1 fit.
Assay [2] has the same target. In words: BLI (BLItz), biotin-10F2 on streptavidin sensor, 2G12 in solution at 1 nM; global 1:1 fit.
Assay [3] has the same target. In words: BLI (BLItz), biotin-10F2 on streptavidin sensor, 2G12 in solution at 1 nM.
Assay [4] has the same target. Kind of assay: BLI (BLItz), biotin-10F2 on streptavidin sensor, 2G12 in solution at 2 nM.
Assay [5] shares this target. Kind of assay: BLI (BLItz), biotin-10F2 on streptavidin sensor, 2G12 in solution at 4 nM.
Assay [6] shares this target. In words: BLI (BLItz), biotin-10F2 on streptavidin sensor, 2G12 in solution at 0.5 nM.
Assay [7] shares this target. Kind of assay: BLI (BLItz), biotin-10F2 on streptavidin sensor, 2G12 in solution at 16 nM; global 1:1 fit.
Assay [8] has the same target. Kind of assay: BLI (BLItz), biotin-10F2 on streptavidin sensor, 2G12 in solution at 8 nM.
Assay [9] shares this target. Kind of assay: BLI (BLItz), biotin-10F2 on streptavidin sensor, 2G12 in solution at 8 nM; global 1:1 fit.
For assay [10] the target is unchanged. In words: BLI (BLItz), biotin-10F2 on streptavidin sensor, 2G12 in solution at 0.5 nM; global 1:1 fit.
Assay [11] shares this target. Kind of assay: BLI (BLItz), biotin-10F2 on streptavidin sensor, 2G12 in solution at 32 nM.
The target is the same in assay [12]. Kind of assay: BLI (BLItz), biotin-10F2 on streptavidin sensor, 2G12 in solution at 16 nM.
Assay [13] shares this target. Kind of assay: BLI (BLItz), biotin-10F2 on streptavidin sensor, 2G12 in solution at 32 nM; global 1:1 fit.
The target is the same in assay [14]. In words: BLI (BLItz), biotin-10F2 on streptavidin sensor, 2G12 in solution at 4 nM; global 1:1 fit.
Assay [15] shares this target. Kind of assay: radiolabeled glycopeptide, 2G12 titration, protein G bead capture, scintillation counting.

Primed or numbered codes have the meaning given here. Where no end group is shown, it is not given here. [ ]: non-standard residue; d: D form. The star is where a group is joined. Hpra′ = its azide, alkyne or alkene has reacted where a group follows in round brackets; Man9 = Man9 glycan, attached by click reaction of Man9-azide with homopropargylglycine; maleimide‑biotin = maleimide-biotin reagent joined to deprotected Cys; For = O=C*

As usually defined, the Kd is the constant that tells how readily two partners part at equilibrium. Read a high Kd as lower affinity. The term koff denotes the rate constant with which the complex falls apart. In general, kon refers to a measure of how fast the partners come together. High values mean fast association, low ones slow association. For-[Hpra′](Man9)HPYNTSRTSA[Hpra′](Man9)[Hpra′](Man9)AALK[Hpra′](Man9)QVTD[Hpra′](Man9)YALALFHRILGSGSGC(maleimide‑biotin)A [biotinylated synthetic 10F2 glycopeptide 3]: the Kd in assay [1], in assay [2], in assay [7], in assay [9], in assay [10] and in [13] was 1.37 nM in each case. This molecule also yielded a Kd in [14] of 1.37 nM. For the same molecule, the koff in assay [1], in assay [2], in [7], in assay [9], in [10] and in [13] was 0.000151 s⁻¹ throughout. Further, the koff in assay [14] was determined as 0.000151 s⁻¹. Also, the kon in assay [1], in assay [2], in assay [7], in [9], in assay [10] and in [13] was 111000 M⁻¹ s⁻¹ each time. For the same molecule, the kon in assay [14] amounted to 111000 M⁻¹ s⁻¹. Further, the Req in [3] was determined as 0.682; in assay [4], 0.987; in assay [5], 1.26; in [6] it was 0.481; in assay [8], 1.37; in [11], 1.39. For the same molecule, the Req in assay [12] was found to be 1.41.

B1: glycopeptide 10F5 (Fixed library, round 10) (peptide)
peptide: For-[Hpra′](Man9)SPHLPVLLCK[Hpra′](Man9)VLNDGRRIVQ[Hpra′](Man9)SCELP[Hpra′](Man9)VRRSGSGSLGHHHHHHRDYKDDDDK
modifications: not fully specified; cysteine pairing not given here
Consider B1, for which, in [15], the Fmax stood at 93% and the Kd was 0.97 nM.

B2: glycopeptide 10F12 (Fixed library, round 10) (peptide)
peptide: For-[Hpra′](Man9)CYVTVIPA[Hpra′](Man9)N[Hpra′](Man9)PEARLGIVCH[Hpra′](Man9)PGIRRGKALYGSGSLGHHHHHHRDYKDDDDK
modifications: not fully specified; cysteine pairing not given here
On to B2, for which, in [15], the Fmax stood at 90% and the Kd stood at 0.77 nM.
